Here are results for 16 molecules from patent US20150344583A1 (Amgen, published 2015).

Numbering of substitutions follows the chain as printed. Numbers in names are those of the source. Where two headings read alike, the source gives them in different places.

The target in test [1] is T1, human BCMA (huBCMA) on cells (human, UniProt Q02223 1-184).
T1 construct: endogenous on H929, JD38 and other myeloma and B-cell lines and on patient plasma cells; also called native human BCMA
T1 chain: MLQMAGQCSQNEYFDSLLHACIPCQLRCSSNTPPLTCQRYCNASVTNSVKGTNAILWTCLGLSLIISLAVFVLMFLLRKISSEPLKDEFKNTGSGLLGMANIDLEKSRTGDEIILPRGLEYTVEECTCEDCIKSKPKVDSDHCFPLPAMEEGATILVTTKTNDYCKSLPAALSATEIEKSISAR
The test can be described thus: FACS, hu BCMA. For orientation: In flow cytometry, cells or beads pass a laser one at a time.

Test [2] concerns the target T2, TACI on transiently transfected cells (human, UniProt O14836 1-293).
T2 construct: whole, on cells; also called huTACI
T2 sequence (looked up): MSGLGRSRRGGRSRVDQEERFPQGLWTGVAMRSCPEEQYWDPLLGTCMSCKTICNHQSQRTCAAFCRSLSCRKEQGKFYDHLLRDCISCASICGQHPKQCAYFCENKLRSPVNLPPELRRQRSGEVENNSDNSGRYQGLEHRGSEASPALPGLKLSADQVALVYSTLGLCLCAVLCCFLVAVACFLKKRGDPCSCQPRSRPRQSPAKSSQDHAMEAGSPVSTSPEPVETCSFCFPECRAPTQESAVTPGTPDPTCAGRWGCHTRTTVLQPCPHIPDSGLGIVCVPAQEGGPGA
The test can be described thus: FACS, hu TACI.

Test [3] has as its target T3, cynomolgus (Macaca fascicularis) BCMA on cells (cynomolgus (Macaca fascicularis), UniProt Q02223 1-184 (human entry)).
T3 construct: also called cyno BCMA; cynomolgus BCMA
Briefly: FACS, Cyno BCMA.

For test [4], the target named is T3, cynomolgus (Macaca fascicularis) BCMA …. Briefly: CynoBCMA O/N FACS.
Test [5] concerns the target T1, human BCMA (huBCMA) on cells. Briefly: cell-based or functional assay.
The target is the same in test [6]. The test can be described thus: FACS on H929 cells (native BCMA, relative binding, indirect).
Test [7] deals with T4, rhuBCMA fusion protein (6xHis::Sumo::huBCMA(aa 5-51)::GGS::G3::Avi) (human).
T4 construct: the preparation also held C-terminally clipped forms; also called Sumo-BCMA; SumoBCMA
T4 chain: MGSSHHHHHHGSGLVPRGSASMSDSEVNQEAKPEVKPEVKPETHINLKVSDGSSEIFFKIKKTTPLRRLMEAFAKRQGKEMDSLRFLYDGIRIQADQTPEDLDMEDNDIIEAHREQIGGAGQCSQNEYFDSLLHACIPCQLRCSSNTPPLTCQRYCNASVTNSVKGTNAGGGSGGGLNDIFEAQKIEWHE
The test can be described thus: Biacore, antibody captured, rhu BCMA analyte. For orientation: SPR reads the build-up and loss of mass on a sensor chip optically.

Test [8] concerns the target T5, rrat BCMA fusion protein (GS::6xHis::Sumo::ratBCMA(aa 2-49)::GGS::G3::Avi) (rat).
T5 chain: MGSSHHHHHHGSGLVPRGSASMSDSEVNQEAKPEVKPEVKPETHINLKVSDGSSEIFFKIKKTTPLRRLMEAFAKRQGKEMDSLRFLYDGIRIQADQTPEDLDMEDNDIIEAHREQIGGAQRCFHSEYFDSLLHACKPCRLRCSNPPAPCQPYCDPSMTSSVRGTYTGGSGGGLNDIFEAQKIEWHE
The test can be described thus: Biacore, antibody captured, rrat BCMA analyte.

The target of test [9] is T4, rhuBCMA fusion protein …. The test can be described thus: Biacore, antibody captured, rhu BCMA analyte.
The target of test [10] is T5, rrat BCMA fusion protein …. Briefly: Biacore, antibody captured, rrat BCMA analyte.
Test [11] addresses T1, human BCMA (huBCMA) on cells. Briefly: cell-based or functional assay.
Test [12] shares this target. Briefly: FACS, H929 cells.

T3 sequence (Q02223 other isoform, or with tags, fused parts or gaps): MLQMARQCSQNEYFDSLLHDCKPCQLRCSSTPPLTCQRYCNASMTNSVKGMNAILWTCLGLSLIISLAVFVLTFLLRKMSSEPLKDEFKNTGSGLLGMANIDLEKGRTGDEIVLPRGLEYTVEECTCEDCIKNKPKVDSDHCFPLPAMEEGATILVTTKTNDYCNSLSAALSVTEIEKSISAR

B1: 30E1 (antibody, V domains shown)
VH: EVQLLESGGGLVQPGGSLRLSCAASGFTFSSHAMSWVRQAPGKGLEWVSAISGGDGNTYYADSVKGRFAISRDNSKNVVYLQMNSLRAEDTAVYFCAKDLVGVVAGYYYYFGMDVWGQGTTVTVSS
VL: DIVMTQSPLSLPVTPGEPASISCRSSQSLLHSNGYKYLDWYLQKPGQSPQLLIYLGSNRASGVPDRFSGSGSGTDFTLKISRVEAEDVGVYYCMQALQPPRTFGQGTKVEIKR
notes: IgG2 or IgG4, purified from hybridoma supernatant; also called 30E1.1; Ab-9
B1: the MFI was 109000 MFI in test [1], 555 MFI in test [2], 78500 MFI in test [3] and 130 MFI in [4].

B2: 32H3 (antibody, V domains shown)
VH: EVQLLESGGGLVQPGGSLRLSCAASGFTFSSYAMSWVRQAPGKGLKWVSAISGGAGNTYYADSVKGRFTISRDISKSTVYLQMTSLRAEDTAIYYCAKDGVGTTGGYFYYHGMDVWGQGTTVTVSS
VL: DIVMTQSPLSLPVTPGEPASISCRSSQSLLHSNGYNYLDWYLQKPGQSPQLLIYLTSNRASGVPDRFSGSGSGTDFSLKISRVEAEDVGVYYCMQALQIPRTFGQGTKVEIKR
notes: IgG2 or IgG4, purified from hybridoma supernatant; also called 32H3.1; Ab-12
Regarding B2, the MFI in test [1] is 97700 MFI; in test [2] it was 1360 MFI; in test [3], 51200 MFI; in test [4], 122 MFI.

B3: 32B5-MCC-DM1 (antibody, V domains shown)
VH: EVQLLESGGALVQPGGSLRLSCAASGFTFSSYAMNWVRQAPGKGLEWVSAISVGGDTYYADSVKGRFTISRDNSKNTLYLHVNSLSAEDSAVYYCAKDQVTLVRGVWYYYGLDVWGQGTTVTVSS
VL: VIVLIQSPLSLPVTPGEPASISCRSSQSLLHSNGNNYLDWYLQKPGQSPHLLISLGSNRTSGVPDRFSGSGSGTDFTLKISRVEAEDVGFYYCMQALQPPRRFGQGTKLEIKR
notes: MCC-DM1 conjugate of '32B5'
Take B3: the “IC50, H929 cell growth (CellTiter-Glo, 96 h)” value in [5] is 0.506 nM. Further, in [6], a half-maximal effect (EC50) was put at 7 nM.

B4: 32B5 (antibody, V domains shown)
VH: B3 VH
VL: B3 VL
notes: IgG2 or IgG4 as purified from hybridoma (32B5.1); later converted to human IgG1; an engineered version may be meant there; also called 32B5.1; Ab-10
For the molecule B4, the MFI in [1] is 137000 MFI; in test [2], 274 MFI; in test [3] it was 257000 MFI; in test [4], 108 MFI.

B5: 35D2 (antibody, V domains shown)
VH: B3 VH with D56G, S86R, S90T, L102M
VL: B3 VL
notes: IgG2 or IgG4, purified from hybridoma supernatant; also called 35D2.1; Ab-15
As for B5, the MFI is 129000 MFI in test [1], 506 MFI in [2], 198000 MFI in test [3] and 152 MFI in test [4].

B6: Ab-2 (29C12_mut) (antibody, human IgG1, kappa, V domains shown)
VH: B3 VH with A10G, H81Q, V82M, S86R, S90T, L102M
VL: B3 VL with V1D, L4M, I5T, N58Q, F90V
notes: Human IgG1; also called 29C12 CV2; 29C12cv2
For the molecule B6, the Kd – broadly, the concentration at which binding is half-saturated – amounted to 1.11 nM in test [7] and 2.35 nM in [8].

B7: 29C12-MCC-DM1 (antibody, V domains shown)
VH: B3 VH with H81Q, V82M, S86R, S90T, L102M
VL: B3 VL with V1D, L4M, F90V
Take B7: in test [5], the “IC50, H929 cell growth (CellTiter-Glo, 96 h)” value stood at 0.39 nM.

B8: 37B2 (antibody, V domains shown)
VH: B3 VH with S31N
VL: B3 VL
notes: IgG2 or IgG4, purified from hybridoma supernatant; also called 37B2.1; Ab-16
In the case of B8, the MFI in test [1] turned out to be 83700 MFI; in [2], 1040 MFI; in [3], 136000 MFI; in test [4], 104 MFI.

B9: 29C12 (antibody, V domains shown)
VH: B3 VH with H81Q, V82M, S86R, S90T, L102M
VL: B3 VL with V1D, L4M, F90V
notes: IgG2 or IgG4 as purified from hybridoma (29C12.1); later converted to human IgG1; an engineered version may be meant there; also called 29C12.1; Ab-8
Turning to B9, the MFI in test [1] was 82600 MFI; in test [2] it was 256 MFI; in test [3] it was 97300 MFI; in [4] it was 110 MFI.

B10: Ab-3 (32B5_mut) (antibody, human IgG1, kappa, V domains shown)
VH: B3 VH with A10G, H81Q, S86R
VL: B3 VL with V1D, I5T, N58Q, F90V
notes: Human IgG1; also called 32B5 CV2; 32B5cv2
With B10, the Kd in test [9] amounted to 0.75 nM; in test [10] it was 2.07 nM.

B11: 2A1-PEG4-Mal-DM4 (antibody, V domains shown)
VH: EVQLVESGGGLVKPGRSLRLSCTASGFTFGDYALSWFRQAPGKGLEWVGVSRSKAYGGTTDYAASVKGRFTISRDDSKSFAYLQMNSLKTEDTAVYYCCSSGYSSGWTPFDYWGQGTLVTVSS
VL: not shown
modifications: PEG4-Mal-DM4 conjugated, sites not stated
With B11, the “IC50, CellTiter-Glo cell viability, H929 cells, 96 h” value (“IC50, CellTiter-Glo cell viability” for short) in test [5] was 2.2 nM.

B12: 2A1-MCC-DM1 (antibody, V domains shown)
VH: B11 VH
VL: not shown
modifications: MCC-DM1 conjugated, sites not stated
Consider B12, for which, in [5], the “IC50 (nM DM1), cell viability, EW36” value came to 30 nM DM1; the “IC50 (nM DM1), cell viability, H929” value was 0.6 nM DM1; the “IC50 (nM DM1), cell viability, MM1R” value worked out at 3.9 nM DM1; the “IC50 (nM DM1), cell viability, MM1S” value is 1 nM DM1. For the same molecule, in test [5], the “IC50 (nM DM1), cell viability, RAMOS” value came to 32 nM DM1; the “IC50 (nM DM1), cell viability, U266” value was determined as 0.8 nM DM1; the “IC50, CellTiter-Glo cell viability” value came to 2.4 nM.

B13: 2A1CV5-MCC-DM1 (Ab-1 ADC) (antibody, human IgG1, lambda, V domains shown)
VH: B11 VH with R16G, T23A, F80T, C99A
VL: not shown
modifications: MCC-DM1 conjugated, sites not stated
Turning to B13, the “IC50 in an H929 tumor cell growth inhibition assay (antibody concentration)” value in [5] is roughly 0.078 nM.

B14: 2A1-S108R (antibody, V domains shown)
VH: B11 VH with S100R
VL: not shown
Regarding B14, the “ADCC EC50” value in [11] turned out to be 0.043 µg/mL. For the same molecule, the EC50 (read off the curve) (usually the concentration at which the effect is half-maximal) in test [12] was roughly 0.2 µg/mL.

B15: 1E1-PEG4-Mal-DM4 (antibody, V domains shown)
VH: QVQLVQSGAEVKKPGASVKVSCKASGYTFTGHYIHWVRQAPGQGLEWMGWIYPNSGGTNYAQKFQGRVTMTRDTSISTAYMELSRLRSDDSAVYYCAREGMVTGDYYYYRMDVWGQGTTVIVSS
VL: QPVLTQPPSASASLGASVTLTCSLSSGYSNYKVDWYQQRPGKGPRFVMRVGIGGIVGSKGDGIPDRFSVLGSGLNRYLTIKNIQEEDESDFHCGADHGSGNNFVYVFGTGTKVTVLG
As for B15, the “IC50, CellTiter-Glo cell viability” value in test [5] was found to be 0.68 nM.

B16: 1E1-MCC-DM1 (antibody, V domains shown)
VH: B15 VH
VL: B15 VL
For the molecule B16, the “IC50, CellTiter-Glo cell viability” value in test [5] stood at 0.63 nM.
